In US20090169546A1:

T1: recombinant HMG1 produced in E. coli as calmodulin binding protein (CBP) fusion (human)
T1 chain: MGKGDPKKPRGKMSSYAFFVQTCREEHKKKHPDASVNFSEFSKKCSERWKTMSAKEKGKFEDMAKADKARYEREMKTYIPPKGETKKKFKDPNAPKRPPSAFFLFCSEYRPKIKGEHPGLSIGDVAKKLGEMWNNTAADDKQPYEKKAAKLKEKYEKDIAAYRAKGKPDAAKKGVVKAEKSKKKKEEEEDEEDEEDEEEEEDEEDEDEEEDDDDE

B1: anti-HMG1 antibody G2 (antibody, V domains shown)
VH: EVQLLESGGGLVQPGGSLRLSCAASGFTFSWYKMQWVRQAPGKGLEWVSGISPSGGSTAYADSVKGRFTISRDNSKNTLYLQMNSLRAEDTAVYYCAKMGLFNTGNSYVDYWGQGTLVTVSS
VL: AQSELTQPPSVSEAPGQRVTISCSGSTSNIGNNAVIWYQQLPGKAPKLLIYYDDLLPSGVSDRFSGSKSGTSGSLAISGLQSEDEADYYCASWDDNLNGPLFGGGTKLTVL
B2: anti-HMG1 antibody S17 (antibody, V domains shown)
VH: EVQLLESGGGLVQPGGSLRLSCAASGFTFSYYDMHWVRQAPGKGLEWVSRISPSGGYTWYADSVKGRFTISRDNSKNTLYLQMNSLRAEDTAVYYCTRGRYTSGWHEYFDPWGQGTLVTVSS
VL: AQDIQMTQSPSSLSASVGDRVTITCRASQSIGTYLNWYQQKPGTAPKVLIYAASSLQSGVPSRFSGSGSGTDFTLTISSLQPEDFSTYYCQQSYNTPRTFGQGTKLEIK
B3: anti-HMG1 antibody G20 (antibody, V domains shown)
VH: EVQLLESGGGLVQPGGSLRLSCAASGFTFSWYDMFWVRQAPGKGLEWVSWISPSGGYTKYADSVKGRFTISRDNSKNTLYLQMNSLRAEDTAMYYCARSGLDYYDSSGYLDAFDIWGQGTMVTVSS
VL: AQDIQMTQSPSSVSASVGDRVTITCRASQDVSIWLAWYQQKPGKAPKLLIFGASRLQSGVPSRFSGSRSGADFTLTIDSVQPEDFASYYCQQADSFPLTFGGGTKVEIK

Target: T1, recombinant HMG1 produced in E. coli as …
Assay: BIAcore 3000; mAb amine-coupled to CM5, HMG1 injected in two-fold dilutions; steady-state model
Conditions: remark: other sources report otherwise

Row | Kd [nM] | Binder
1 | 101 | B1
2 | 331 | B2
3 | 114 | B3
